“And” between values parts separate entries of the source, which are not always exact repeats. Identical values can stand only once. Where no end group is shown, it is not given here. The star is where a group is joined. Biotin = O=C1N[C@H]2[C@H](CS[C@H]2CCCCC(=O)*)N1
Key:
GST-PDK1 L155S = target: T1, GST-PDK1 L155S (human, UniProt O15530 1-556); experiment: SPR over immobilised biotinylated PIFtide
T1 construct: range 1-556; not shown: N-terminal GST tag, pEBG2T vector
T1 sequence (looked up): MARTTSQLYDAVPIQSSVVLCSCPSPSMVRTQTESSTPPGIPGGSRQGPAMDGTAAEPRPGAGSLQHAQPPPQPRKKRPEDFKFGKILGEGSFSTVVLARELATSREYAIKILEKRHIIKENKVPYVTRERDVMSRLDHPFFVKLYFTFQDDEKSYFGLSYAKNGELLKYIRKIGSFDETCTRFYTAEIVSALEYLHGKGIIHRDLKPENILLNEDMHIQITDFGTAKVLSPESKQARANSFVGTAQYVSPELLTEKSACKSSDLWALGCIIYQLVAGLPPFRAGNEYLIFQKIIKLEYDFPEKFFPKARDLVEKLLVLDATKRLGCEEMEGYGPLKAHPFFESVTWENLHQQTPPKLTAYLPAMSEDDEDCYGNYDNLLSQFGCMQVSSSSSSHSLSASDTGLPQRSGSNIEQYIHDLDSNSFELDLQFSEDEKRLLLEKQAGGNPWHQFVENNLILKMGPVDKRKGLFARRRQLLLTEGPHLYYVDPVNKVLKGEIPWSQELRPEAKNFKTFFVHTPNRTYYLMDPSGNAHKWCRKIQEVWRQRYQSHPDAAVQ
Procedure: (§1) Duplicates of each condition are shown. Similar results were obtained in 3 to 5 separate experiments. (D) Surface Plasmon Resonance measurements were carried out in a BiaCore instrument as described in the Methods to measure the interaction of wild type and mutant GST-PDK1 preparations with the 24 residue synthetic peptide whose sequence encompasses the PDK1 binding site on PIF termed PIFtide [24: Example 2]. PIFtide was immobilised on a SA SensorChip and wild type (wt) or the indicated mutants of PDK1 were injected at a concentration of 40 nM. All data are single determinations from a representative experiment that was repeated at least 3 times with similar results. For clarity, the bulk, refractive index changes associated with the beginning and end 10 seconds of the injection have been removed.
(§2) Binding was analysed directly by surface plasmon resonance in an upgraded Bia-Lite™ system. PIFtide (comprising the last 24 residues of PRK2) was biotinylated though its C-terminal Cys and bound to an streptavidin-coated Sensor/Chip SA, as described previously. Wild type or mutant preparations of GST-PDK1 (10-400 nM) were injected in an intracellular type buffer, over the immobilised biotinylated PIFtide at a flow rate of 30 μl per min as described previously (James et al (1996) Biochem J 315, 709-713). Alternatively, the wild type or mutant preparations of GST-PDK1 (1 μM) were incubated with PIFtide or D978A-PIFtide (0.10 μM) and the mixture injected over the immobilised peptides. The decrease is steady state binding between wild type and mutant GST-PDK1 and peptide was used to determine the Kd of interaction between PDK1 and the peptide. The decrease in the maximal response at different concentrations of peptide was used to evaluate the relative affinities of both peptides for PDK1. The sensor chip surface was regenerated by pulses of 10 mM NaOH. […]

GST-PDK1 L155D = target: T2, GST-PDK1 L155D (human, UniProt O15530 1-556); experiment: SPR over immobilised biotinylated PIFtide
T2 construct: range 1-556; also called L155D mutant of GST-PDK1; not shown: N-terminal GST tag, pEBG2T vector
T2 sequence (looked up): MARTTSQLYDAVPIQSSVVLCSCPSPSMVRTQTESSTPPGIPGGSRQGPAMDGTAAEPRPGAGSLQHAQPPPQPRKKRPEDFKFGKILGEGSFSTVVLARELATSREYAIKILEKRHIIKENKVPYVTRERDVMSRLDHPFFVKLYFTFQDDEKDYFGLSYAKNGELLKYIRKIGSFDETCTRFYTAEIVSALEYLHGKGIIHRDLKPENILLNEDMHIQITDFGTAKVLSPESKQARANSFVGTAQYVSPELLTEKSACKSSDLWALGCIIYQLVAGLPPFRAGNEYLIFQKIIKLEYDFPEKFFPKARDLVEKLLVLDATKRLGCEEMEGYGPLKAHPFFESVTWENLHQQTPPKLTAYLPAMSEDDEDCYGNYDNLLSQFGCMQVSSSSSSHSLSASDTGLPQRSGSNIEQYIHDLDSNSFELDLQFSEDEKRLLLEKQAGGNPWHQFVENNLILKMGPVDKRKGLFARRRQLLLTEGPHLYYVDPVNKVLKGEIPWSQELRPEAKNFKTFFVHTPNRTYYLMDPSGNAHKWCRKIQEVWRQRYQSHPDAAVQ
Procedure: as §1, §2

GST-PDK1 L155E = target: T3, GST-PDK1 L155E (human, UniProt O15530 1-556); experiment: SPR over immobilised biotinylated PIFtide
T3 construct: range 1-556; not shown: N-terminal GST tag, pEBG2T vector
T3 sequence (looked up): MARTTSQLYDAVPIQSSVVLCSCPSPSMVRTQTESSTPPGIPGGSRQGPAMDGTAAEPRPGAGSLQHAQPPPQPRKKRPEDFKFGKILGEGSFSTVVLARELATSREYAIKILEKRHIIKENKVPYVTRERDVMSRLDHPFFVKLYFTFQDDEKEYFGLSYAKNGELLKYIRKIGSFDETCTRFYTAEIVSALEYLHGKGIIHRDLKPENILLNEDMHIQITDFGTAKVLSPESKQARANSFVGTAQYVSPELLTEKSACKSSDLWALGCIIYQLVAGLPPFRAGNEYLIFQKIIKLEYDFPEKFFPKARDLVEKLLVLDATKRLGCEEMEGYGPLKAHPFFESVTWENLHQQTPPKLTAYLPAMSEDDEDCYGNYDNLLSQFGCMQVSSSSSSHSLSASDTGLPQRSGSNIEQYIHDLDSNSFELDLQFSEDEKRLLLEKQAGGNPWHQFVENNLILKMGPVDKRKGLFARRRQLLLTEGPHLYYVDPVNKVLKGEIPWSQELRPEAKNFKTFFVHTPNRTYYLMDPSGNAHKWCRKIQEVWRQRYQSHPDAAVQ
Procedure: as §1, §2

His-PDK1 = target: T4, His-PDK1 (human, UniProt O15530 52-556); experiment: SPR, immobilised biotinylated 24 residue peptide
T4 construct: range 52-556; Expressed in Sf9 cells; also called His-tagged PDK1; PDK1 (residues 52-556) with a hexahistidine tag; not shown: N-terminal hexahistidine (His) tag
T4 sequence (looked up): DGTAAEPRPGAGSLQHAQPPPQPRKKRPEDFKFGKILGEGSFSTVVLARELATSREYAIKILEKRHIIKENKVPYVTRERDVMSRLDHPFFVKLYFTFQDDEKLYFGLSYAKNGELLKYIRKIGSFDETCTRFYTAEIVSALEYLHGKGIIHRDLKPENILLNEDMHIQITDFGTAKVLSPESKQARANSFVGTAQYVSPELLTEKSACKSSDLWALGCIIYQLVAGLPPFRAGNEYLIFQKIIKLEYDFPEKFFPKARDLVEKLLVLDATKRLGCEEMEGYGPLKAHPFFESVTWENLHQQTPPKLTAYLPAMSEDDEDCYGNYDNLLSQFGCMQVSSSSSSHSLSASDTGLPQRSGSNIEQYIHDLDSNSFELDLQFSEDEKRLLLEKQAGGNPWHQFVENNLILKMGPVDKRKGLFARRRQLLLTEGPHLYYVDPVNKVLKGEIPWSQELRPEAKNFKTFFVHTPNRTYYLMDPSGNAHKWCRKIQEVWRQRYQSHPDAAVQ

binding result (GST-PDK1 L155S): no binding (tested: injected at 40 nM)
binding result (GST-PDK1 L155D): no binding (tested: injected at 40 nM)
binding result (GST-PDK1 L155E): no binding (tested: injected at 40 nM)
Kd (His-PDK1): 0.8 µM and 1.5 µM
B1: biotinylated PIFtide, immobilised (peptide)
peptide: REPRILSEEEQEMFRDFDYIADWC(Biotin)
notes: also called immobilised, biotinylated synthetic peptide termed PIFtide; immobilised and biotinylated 24 residue synthetic peptide

— patent publication US20030143656A1 (published 2003)
